Data on 1 molecule can be found in patent US20260167721A1.

In assay [1] the target is Jurkat TCRb knockout cells. The assay is described as follows: flow cytometry, Jurkat KO (TCRb knockout) cells, negative control, 1 ug/mL. (In general: In flow cytometry, cells or beads pass a laser one at a time.)
In assay [2] the target is Jurkat TCRb knockout cells. The assay is described as follows: flow cytometry, Jurkat KO (TCRb knockout) cells, negative control, 10 ug/mL.
Assay [3] deals with Jurkat TCRb knockout cells. The assay is described as follows: flow cytometry on Jurkat KO (TCRb knockout) cells, negative control, antibody at 1 ug/ml.
The target in assay [4] is Jurkat TCRb knockout cells. In words: flow cytometry on Jurkat KO (TCRb knockout) cells, negative control, antibody at 10 ug/ml.

B1: Gemtuzumab (antibody, V domains shown)
VH: EVQLVQSGAEVKKPGSSVKVSCKASGYTITDSNIHWVRQAPGQSLEWIGYIYPYNGGTDYNQKFKNRATLTVDNPTNTAYMELSSLRSEDTAFYYCVNGNPWLAYWGQGTLVTVSS
VL: DIQLTQSPSTLSASVGDRVTITCRASESLDNYGIRFLTWFQQKPGKAPKLLMYAASNQGSGVPSRFSGSGSGTEFTLTISSLQPDDFATYYCQQTKEVPWSFGQGTKVEVKR
As to B1, the gMFI in assay [1] is 1860 gMFI; in assay [2], 1830 gMFI. In addition, the flow cytometry signal was 3000 in assay [3] and 2820 in assay [4].
